The source of these data is patent publication US12060408B2, “Screening assays, modulators and modulation of activation of Receptor for Advanced Glycation End-products (RAGE)” (Monash University, priority 2017, dated 2024).

The target of one experiment is T1, CCR2 (Mus musculus, UniProt P51683).
T1 construct: host or cells: mouse models (and one rat model) in vivo
The note with it: mouse models of multiple sclerosis, renal ischemia-reperfusion injury, ureteric obstruction, diabetic nephropathy; rat model of arthritis; cited from earlier work.

The next experiment has as its system RAGE. The experiment in a line: Ang II-induced pro-inflammatory signalling (p65-NFκB expression) in AT1R-CHO / RAGE-AT1R-CHO cells. In kind it is cell-based, human. Conditions: pre-treatment with mCherry-S391A-RAGE362-404 0.4 ng/ml; FIG. 10G.
For another experiment, the system named is murine SVEC. The experiment in a line: Induction of ICAM-1 by Ang II in murine SVEC transfected with RAGE constructs (RT-PCR). In kind it is cell-based, mouse. Conditions: transfected construct (FIG. 12). From the text:
FIG. 12A. The effect of transfection of murine SVEC with RAGE or RAGE mutants on the induction of ICAM-1 by Ang II compared to vector alone (pc-Neo) as a control, as measured by RT-PCR. Data are mean±SEM; n=6-8 per group. * vs untreated control, # vs neo+Ang II, p<0.05.
FIG. 12B. The effect of transfection with truncated RAGE mutants on the induction of ICAM-1 by Ang II in murine SVEC to identify the smallest fragments with inhibitory activity. Data are mean±SEM; n=6-8 per group, * vs no treatment control, p<0.05.
FIG. 12D. The effect of transfection with single site-specific alanine or lysine mutants of RAGE370-390 on the induction of ICAM-1 by Ang II in murine SVEC. Data are mean±SEM; n=6-8 per group, * vs no treatment control, p<0.05.
(§1) Cellular Expression of Pro-Inflammatory Markers and Mediators by Quantitative Real-Time PCR
After 2 hours of exposure to Ang II (1 μM) or the RAGE ligand, S100A8/A9 (5 ng/ml) cells were placed in Trizol, mRNA extracted and cDNA synthesized. Changes in the gene expression of the NFκB subunit, p65 (RelA) or NFκB-activated target genes (e.g ICAM-1, VCAM-1) were estimated by quantitative real-time RT-PCR, performed using the TaqMan system based on real-time detection of accumulated fluorescence (ABI Prism 7700, Perkin-Elmer Inc, PE Biosystems, Foster City, CA, USA). […]

Experiment [1] has as its system primary murine aortic endothelial cells (PMAEC). The experiment in a line: Expression of pro-inflammatory markers by real-time RT-PCR in primary murine aortic endothelial cells. In kind it is cell-based, mouse. As for the experimental part:
Primary aortic endothelial cells (PMAEC) were isolated from the aortae of (wild-type) C57bl6 mice and AGER KO mice and cultured in Dulbecco's modified Eagle's medium (DMEM)/F12 endothelial cell growth supplement (ECGS) supplemented media. Chinese Hamster Ovary (CHO) cells were cultured using F12 media (10% FCS with 2 mM glutamine). Human microvascular endothelial cells (HMEC) were cultured in MCDB 131 medium (10% FCS with 10 mM glutamine, EGF and hydrocortisone).
as §1
(§2) After 2 hours of exposure to Ang II (1 μM) or the RAGE ligand, S100A8/A9 (5 ng/ml) cells were placed in Trizol, mRNA extracted and cDNA synthesized. Changes in the gene expression of the NFκB subunit, p65 (RelA) or NFκB-activated target genes (e.g ICAM-1, VCAM-1) were estimated by quantitative real-time RT-PCR, performed using the TaqMan system based on real-time detection of accumulated fluorescence (ABI Prism 7700, Perkin-Elmer Inc, PE Biosystems, Foster City, CA, USA). Gene expression was normalized to 18S mRNA and reported as fold change compared to the level of expression in untreated control mice/cells, which were given an arbitrary value of 1.
Selective Silencing of Gene Expression Using siRNA
PMAEC from C57b/6 mice were also transfected with siRNA to RAGE (2 nM) Ambion, ID:s62119), p65 (RelA) (10 nM; Ambion, ID:s72857), MyD88 (10 nM; Ambion. ID:s201719), PKCζ (10 nM; Ambion, ID:s71716), IQGAP-1, Ambion, ID:s78119), Diaph1 (10 nM; sense5′-[…], antisense 3′-[…]; Invitrogen) or scrambled control #1 (2 nM or 10 nM; Ambion) using Lipofectamine RNAiMAX (Invitrogen) as per manufacturer's instructions. Cells were allowed to recover in media containing 10% FBS for 16 hours prior to treatment with 1 μM Ang II or 5 ng/ml of the RAGE ligand, S100A8/A9, as a signalling control.

The subject of experiment [2] is RAGE ligand-dependent activation of RAGE. Description: S100A8/A9-induced NFκB activation (p65 gene expression) in CHO cells expressing RAGE constructs. Type of experiment: cell-based, human. Conditions: CHO cells expressing the RAGE polypeptide, 5 ng/ml. The protocol:
Generation of Transgenic Chinese Hamster Ovary Cells
100 ng of AT1R-Rluc8 construct was transfected into CHO cells using Lipofectamine 2000 (Thermo). Stable transfectants were selected using G418. AT1R—CHO were then transiently transfected with RAGE constructs using Lipofectamine 2000 (Invitrogen) and incubated for 16 h. The Homo sapiens AGER transcript variant 1 coding sequence (NM_001136) was synthesised and cloned between the NheI and XbaI sites of pCIneo (Promega) to generate the vector pCIneo-RAGE. This plasmid was then used to generate a library of mutant AGER clones (NP_001127). Primers 1-RAGE-SP-5′ and mCherry-XhoI-NotI-3′ were used to amplify the coding sequence of mCherry from the vector pmCherry-C1. The resultant PCR product was then used as template for a second PCR using primers 2-RAGE-SP-5′ and mCherry-XhoI-NotI-3′. The PCR product generated was digested with NheI and NotI and inserted between the NheI and NotI sites of pCIneo to generate pCIneo-SP-mCherry. The sequence of the insert was confirmed by DNA sequencing (Micromon, Monash University). […]
as §1, §2
To measure the induction of NFκB activity by 1 μM Ang II, or 5 ng/ml of the RAGE-ligand S100A8/A9 as a signalling control, AT1R—CHO cells were transfected with 0.4 μg of plasmids encoding NFκB-SEAP or β-galactosidase (β-Gal) using Lipofectamine 2000 (Invitrogen) as per manufacturer's instructions. After 24 hours, cells transfected with each plasmid combination were then treated with Ang II (1 μM) or left untreated and incubated for 4 hours before cell supernatants and cell lysates were collected. Cell supernatants were analysed using a chemiluminescent SEAP reporter gene assay (Roche Applied Science) to detect SEAP production after treatment. To control for transfection efficiency, cell lysates were assayed for β-Gal using a commercially available kit (Promega).

In a further experiment the target is T2, CCR4 (Homo sapiens, UniProt P51679).
T2 construct: expressed in transfected cells; host or cells: HEK293FT, transient
The experiment in a line: Receptor-HIT BRET, β-arrestin2/Venus with RAGE/Rluc8 and CCR4. In kind it is cell-based. From the text: Bioluminescence Resonance Energy Transfer (BRET)
BRET is an established technology for studying protein-protein proximity in live cells, particularly involving GPCRs (Pfleger and Eidne, 2006). One protein of interest was linked to a bioluminescent donor enzyme, Rluc8, a variant of Renilla luciferase, and a second linked to an acceptor fluorophore, Venus, a variant of green fluorescent protein. If in close proximity (<10 nm), energy resulting from the rapid oxidation of a cell-permeable coelenterazine substrate by the donor can transfer to the acceptor, which in turn fluoresces at a longer characteristic wavelength.
Plasmids were transiently co-expressed in human embryonic kidney (HEK) 293FT cells and BRET measurements taken at 37° C. using a POLARstar Omega or LUMIstar plate reader (BMG Labtech, Mornington, Victoria, Australia) with 460-490 nm (‘donor emission’) and 520-550 nm (‘acceptor emission’) filters, or a VICTOR Light plate reader (Perkin Elmer, Glen Waverley, Victoria, Australia) with 400-475 nm (‘donor emission’) and 520-540 nm (‘acceptor emission’) filters, or a CLARIOstar plate reader (BMG Labtech, Mornington, Victoria, Australia) with 420-480 nm (‘donor emission’) and 520-620 nm (‘acceptor emission’) filters.
The BRET ratio was calculated by subtracting the ratio of ‘acceptor emission’ over ‘donor emission’ for a cell sample expressing Rluc8-tagged protein alone from the same ratio for a cell sample expressing both Rluc8 and Venus-tagged proteins. Alternatively, the ligand-induced BRET signal was calculated by subtracting the ratio of ‘acceptor emission’ over ‘donor emission’ for a vehicle-treated cell sample from the same ratio for a second aliquot of the same cells treated with agonist.
For BRET kinetic assays, the final pre-treatment reading is presented at the zero time point (time of ligand/vehicle addition). For the saturation assay, fluorescence after light excitation was measured on an EnVision 2102 multi-label plate reader (PerkinElmer, Glen Waverley, Victoria, Australia) using a 485/14 excitation filter, 535/25 emission filter and D505 mirror. […]

T2 sequence (P51679 whole entry): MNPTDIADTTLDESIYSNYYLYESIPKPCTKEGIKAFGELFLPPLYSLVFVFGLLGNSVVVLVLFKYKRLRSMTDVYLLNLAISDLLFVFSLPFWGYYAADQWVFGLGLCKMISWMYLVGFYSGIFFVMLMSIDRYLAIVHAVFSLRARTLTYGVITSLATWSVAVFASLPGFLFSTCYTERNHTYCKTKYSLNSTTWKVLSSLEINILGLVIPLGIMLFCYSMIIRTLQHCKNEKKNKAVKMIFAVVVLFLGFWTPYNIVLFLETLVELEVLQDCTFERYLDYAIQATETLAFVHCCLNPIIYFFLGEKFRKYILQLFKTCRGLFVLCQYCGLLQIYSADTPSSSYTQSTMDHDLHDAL
T2 sequence (P32121 whole entry partner): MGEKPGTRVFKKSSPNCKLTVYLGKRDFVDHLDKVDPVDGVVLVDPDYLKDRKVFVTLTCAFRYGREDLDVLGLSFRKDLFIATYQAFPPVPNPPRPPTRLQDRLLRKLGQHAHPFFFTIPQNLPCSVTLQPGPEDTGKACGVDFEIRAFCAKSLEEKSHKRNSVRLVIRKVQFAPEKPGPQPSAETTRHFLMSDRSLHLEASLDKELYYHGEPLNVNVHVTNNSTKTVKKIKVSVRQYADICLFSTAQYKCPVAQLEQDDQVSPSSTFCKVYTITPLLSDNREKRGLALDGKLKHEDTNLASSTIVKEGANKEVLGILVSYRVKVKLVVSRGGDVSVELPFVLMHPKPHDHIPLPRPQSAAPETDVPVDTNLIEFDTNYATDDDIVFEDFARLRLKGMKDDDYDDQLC
T1 sequence (P51683 whole entry): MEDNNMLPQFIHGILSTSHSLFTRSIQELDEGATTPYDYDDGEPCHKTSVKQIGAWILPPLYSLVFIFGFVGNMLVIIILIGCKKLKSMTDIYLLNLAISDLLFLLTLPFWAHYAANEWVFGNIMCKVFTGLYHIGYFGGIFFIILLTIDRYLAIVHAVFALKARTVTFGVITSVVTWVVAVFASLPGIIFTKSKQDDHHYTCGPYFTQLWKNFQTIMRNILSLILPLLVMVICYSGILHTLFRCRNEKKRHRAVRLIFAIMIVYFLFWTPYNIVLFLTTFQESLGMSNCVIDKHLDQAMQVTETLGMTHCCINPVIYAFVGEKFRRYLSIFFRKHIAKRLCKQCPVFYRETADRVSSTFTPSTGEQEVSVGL

With `CCO[C@H]1CN(C2CCC(O)(c3ccc4c(c3)OCO4)CC2)C[C@@H]1NC(=O)CNC(=O)c1cccc(C(F)(F)F)c1` (stereo partly shown) [INCB3344], the inflammation entry on CCR2 is “suppress inflammation”.
In the case of `Cc1ccc2c(c1)C1(CCN(CCc3nc(-c4ccccc4)oc3C)CC1)OC(=O)N2` [RS-504393], on CCR2, the inflammation result was “suppress inflammation”.
With `O=C(O)C[CH2][Ge](=[O])[O][Ge](=[O])[CH2]CC(=O)O` [propagermanium, 3-[(2-Carboxyethyl-oxogermyl)oxy-oxogermyl]propanoic acid], the inflammation result on CCR2 is recorded as “suppress inflammation”.
With “R366A-Q367A-RAGE362-404: mutated RAGE cytosolic tail peptide in which the charged patch is altered (LWQRAARRGEERKAPENQEEEEERAELNQSEEPEAGESSTGGP; cytosolic tail peptide; UniProt Q15109 362-404, looked up, variant R366A Q367A)”, the “overcoming the inhibition of transactivation conferred by mCherry-S391A-RAGE362-404” value in the experiment with RAGE is given as “able to overcome the inhibition”.
For the molecule “RAGE370-404: N-truncated RAGE peptide without the charged patch Diaph1 binding domain (GEERKAPENQEEEEERAELNQSEEPEAGESSTGGP; UniProt Q15109 370-404, looked up, fragment)”, in the experiment on RAGE, the “overcoming the inhibition of transactivation conferred by mCherry-S391A-RAGE362-404” value is “able to overcome the inhibition”.
For “RAGE385-390: N-truncated RAGE construct eliminating both 380 and 384 (RAELNQ; UniProt Q15109 385-390, looked up, fragment)”, the “inhibition of Ang II-induced ICAM-1 (acting on wild type RAGE)” value in the experiment with murine SVEC is “loss of the modulatory actions”.

B1: S100A8/A9: RAGE ligand (protein)
chain 1: MLTELEKALNSIIDVYHKYSLIKGNFHAVYRDDLKKLLETECPQYIRKKGADVWFKELDINTDGAVNFQEFLILVIKMGVAAHKKSHEESHKE
chain 2: MTCKMSQLERNIETIINTFHQYSVKLGHPDTLNQGEFKELVRKDLQNFLKKENKNEKVIEHIMEDLDTNADKQLSFEEFIMLMARLTWASHEKMHEGDEGPGHHHKPGLGEGTP
Consider B1, for which, in experiment [1] (PMAEC from AGER KO mice), the “induction of pro-inflammatory genes” value is “does not lead to the induction”. In experiment [1] (PMAEC from C57bl6 mice, Ang II 1 μM or S100A8/A9), the “expression of pro-inflammatory genes (ICAM-1, VCAM-1, TNFα, MCP-1)” value is “induction”. Further, in experiment [1] (PMAEC with AGER expression silenced using siRNA), the “NFκB-dependent induction of VCAM-1 gene expression” value is “preventing”. For the same molecule, the “activation of p65-NFκB” value in experiment [2] is “able to induce activation”.

B2: CCL22: chemokine ligand used to activate CCR4 (protein)
chain: GPYGANMEDSVCCRDYVRYRLPLRVVKHFYWTSDSCPRPGVVLLTFRDKEICADPRVPWVKMILNKLSQ
Regarding B2, the “recruitment of βarrestin2/Venus to CCR4/Rluc8” value in the experiment with CCR4 (control) was “recruitment”. Also, the “recruitment of β-arrestin2/Venus proximal to RAGE/Rluc8” value with CCR4 (in the presence of CCR4) was “not and Lack of”. Moreover, the “BRET signal between Gαi/Nluc and Gγ2/Venus” value in the experiment with CCR4 (untagged CCR4 co-expressed) is “observed”.
